Measurements as given in the DeepSol protein solubility set.

assay: soluble on expression in E. coli; label from the status in PepcDB or PDB records

Sequence	soluble on expression in E. coli
MKFLPYIFLLCCGLWSTISFADEDYIEYRGISSNNRVTLDPLRLSNKELRWLASKKNLVIAVHKSQTATLLHTDSQQRVRGINADYLNLLKRALNIKLTLREYADHQKAMDALAEGEVDIVLSHLVTSPPLNNDIAATKPLIITFPALVTTLHDSMRPLTSPKPVNIARVANYPPDEVIHQSFPKATIISFTNLYQALASVSAGHNDYFIGSNIITSSMISRYFTHSLNVVKYYNSPRQYNFFLTRKESVILNEVLNRFVDALTNEVRYEVSQNWLDTGNLAFLNKPLELTEHEKQWIKQHPNLKVLENPYSPPYSMTDENGSVRGVMGDILNIITLQTGLNFSPITVSHNIHAGTQLSPGGWDIIPGAIYSEDRENNVLFAEAFITTPYVFVMQKAPDSEQTLKKGMKVAIPYYYELHSQLKEMYPEVEWIQVDNASAAFHKVKEGELDALVATQLNSRYMIDHYYPNELYHFLIPGVPNASLSFAFPRGEPELKDIINKALNAIPPSEVLRLTEKWIKMPNVTIDTWDLYSEQFYIVTTLSVLLVGSSLLWGFYLLRSVRRRKVIQGDLENQISFRKALSDSLPNPTYVVNWQGNVISHNSAFEHYFTADYYKNAMLPLENSDSPFKDVFSNAHEVTAETKENRTIYTQVFEIDNGIEKRCINHWHTLCNLPASDNAVYICGWQDITETRDLINALEVEKNKAIKATVAKSQFLATMSHEIRTPISSIMGFLELLSGSGLSKEQRVEAISLAYATGQSLLGLIGEILDVDKIESGNYQLQPQWVDIPTLVQNTCHSFGAIAASKSIALSCSSTFPEHYLVKIDPQAFKQVLSNLLSNALKFTTEGAVKITTSLGHIDDNHAVIKMTIMDSGSGLSQEEQQQLFKRYSQTSAGRQQTGSGLGLMICKELIKNMQGDLSLESHPGIGTTFTITIPVEISQQVATVEAKAEQPITLPEKLSILIADDHPTNRLLLKRQLNLLGYDVDEATDGVQALHKVSMQHYDLLITDVNMPNMDGFELTRKLREQNSSLPIWGLTANAQANEREKGLSCGMNLCLFKPLTLDVLKTHLSQLHQVAHIAPQYRHLDIEALKNNTANDLQLMQEILMTFQHETHKDLPAAFQALEAGDNRTFHQCIHRIHGAANILNLQKLINISHQLEITPVSDDSKPEILQLLNSVKEHIAELDQEIAVFCQKND	not soluble
MKFPFHPWRRLLLCALPFAALLTACDDGKKEPPPKPAEVTTYNSVPWDALPATSDADLLAGFNAWRSACARLAKDPVWGEPCASATTVAADPTAVRAFLQERMQVYSLRSSSNGDQGLITGYYEPVYHGSLSQGEKTPVPVYGVPDDLVVVALESVYPELKGKRLRGRLEGRVLKPYDDAATIRDNGSSAPVLAWLGDPMDLQFLQIQGSGRIQLEDGRQLRIGYGDQNGHPYKPVGRWLVEQGLVPKEEISMKRIRDWAEANPQRVSELLASNPSFVFFSLRPDSDEGPRGSLNVPLTDGYSVAIDRKVIPLGSLMWLSTTRPDDGSAVVRPVAAQDTGGAIVGEVRADLFWGTGDAAGELAGHMKQPGRLWLLWPKGAPLPAS	not soluble
MKFRSTALVKGFRQSAPYVNAHRDKTVVIMLGGEAIADPNFANIVNDIALLNSLGLRIVIVYGTRPQMRSLLKQTEHHAPFHKGIRITDEQTLELVKQIAGQLQLDITARLSMSLNNTPMAGAQINVISGNFVIAQPLGVDDGIDYCHSGRVRRIDTQGINRMLDQQSIVLLGPVASSVTGECFNLLSEDVATQLAIRLNADKLIGFCSEQGVLNEKGQILAELFPSEAEEILQRLEKELTPENGKLTGTMRFLKGAISACKAGVPRSHLISYKEDGALIQELFSFDGIGTQVVMASSEQVRDAEIDDIGGILDLIRPLEEEGILVRRSREQLEQEIAQFTIIEKDGLVIACAALYPFPEEGMAEMGCVAVHPDYRDGDRGVTLLNRLRSKAKQFKLSQLFVLTTRSLHWFREQGFIEVDVSHLPIKKQKLYNFQRKSKILVLKGL	not soluble
MKFSALGDQAIIVTFGEEIKRDIYEKVQRLFQALQQHPFAGMIECVPSFTSLAVYYNVYEVWKGNERSERSHDYVRQYIKELCDSYKEEVKQDVKHISIPVCYGGEYGPDLEEVAHYHGLQVEDVIRIHSETTYFVYMLGFTPGFPYLGGLSKELETPRKETPRLQISPGSVGIGGNQTGIYPLETPGGWNIIGRTPISLFNPEEEIPTYIQSGMYLRFIPITKEEYVSLEGAKKWMLEHHHHHH	soluble
MKFSSLLQDTAAIDVFIKILTSVSKLSKKRCCVKIEKNALNFICCSGLHDGGSWFSLSIPYSSQIFRKFDMVGMNPRNEEQNLIYFELEIDSLVRVLPGGHCYLKLKLSKSQKDEPMLSVEVRNPEADIVSHQIPITIILSKYWNSYSRPSIGHRKMSISMPPPKMMSRFLHVFKNMNTRVVKLTASTSGDLRISTKIETGEIDVSFSDLQTNPSETDSQEDTAKVQLMIRNISPLFQSFANTRTRAKMNIISNRMAEFNFHNEDCVLSYIVGNVSD	not soluble
MKGLIIKQPYANWIVEGKKVWEIRKTPTKIRGRVIIISEKKAVGSVEIVDVLGPFTPEELANHENKHLASYDFLKRYANGKKLYAWVLANPEKYDPPIEVKIPNGAQIWVNLKGFVRR	soluble
MKGNYVQVYVMLPLDAVSVNNRFEKGDELRAQLRKLVEAGVDGVMVDVWWGLVEGKGPKAYDWSAYKQLFELVQKAGLKLQAIMSFHQCGGNVGDAVNIPIPQWVRDVGTRDPDIFYTDGHGTRNIEYLTLGVDNQPLFHGRSAVQMYADYMTSFRENMKDFLDAGVIVDIEVGLGPAGELRYPSYPQSHGWSFPGIGEFICYDKYLQADFKAAAAAVGHPEWEFPNDAGQYNDTPERTQFFRDNGTYLSEKGRFFLAWYSNNLIKHGDRILDEANKVFLGYKVQLAIKIAGVHWWYKVPSHAAELTAGYYNLHDRDGYRTIARMLKRHRASINFTCAEMRDSEQPPDAMSAPEELVQQVLSAGWREGLNVSCENALPRYDPTAYNTILRNARPHGINQSGPPEHKLFGFTYLRLSNQLVEGQNYVNFKTFVDRMHANLPRDPYVDPMAPLPRSGPEISIEMILQAAQPKIQPFPFQEHTDLPVGPTGGMGGQAEGPTCG	soluble
MKHMEKFANHFGYNRMFAKDQLTLGVHIPIENYQFHAPTMEKQVELVQKAEQYGFTGVWLRDVLLQDPDFGDPATGQIYDMMIYLTYLASKTEKIAFGTSATVLSLRHPLRVAKEIATLDQLFPERIMLGVSSGDRRADFKALGVSHETRGEKFREAFAYLEEILYKNFPSIQSTLGEVHGANLVPKPSKRVPTFITGFSQQNMEWFAEHGDGWMYYPRSPVHQAGAIGQWRELVEDYHPDVFKPFIQPMHLDLSEDPNERPTPIRLGYRTGRKALIELLDIYKSIGVNHLFLALFDGQRPADEVLDELGEEVLPHFPAL	soluble
MKHWFNIALAALALSSATVQAATEVKVGMSGRYFPFTFVKQDELQGFEVDVWNEIGKRNDYKVEFVTANFSGLLGLLETGRIDTISNQITITDARKAKYLFSDPYVIDGAQITVRKGNEAIKGIDDLAGKTVAVNLGSNFEQLLRNHDKDGKINIKTYDTGIEHDVALGRADAFVMDRLSALELIEKTGLPLQLAGSPFETIENAWPFVNNEKGQQLQGEVNKALAAMRADGTLSQIALKWFGTDISQ	not soluble
MKHYDSMDQELITMPISNAFLKLFSEFVDNYARNGTPSFYHWAKEQNHEVINKFFHELLEIIKSNTETFHDVSIIEHLNATVLLSAKTNPYLLDCWISFITKYNAETNSFTPIGASMHIKVGPEGTPSERIIRELKESLVMTQQAFILAQKANATEVDSLKRQLEQTKQENERLVTQNQFLKDQVRAEKTFADLNPQINNARQQLSALTELIQTLSEITNAKPKIETVSSLSIPVVTENKSELLKENSCSVASVSKEVTPAISQEPKKRPVPPPPNDTDGQALSPNIPPKEDVSIKVTIPSMPKPNSTQPAAKNSGFFSGDGFLKELNAKIKERKERPKDEPHTTPVEKKNL	not soluble
MKIAGIDEAGRGPVIGPMVIAAVVVDENSLPKLEELKVRDSKKLTPKRREKLFNEILGVLDDYVILELPPDVIGSREGTLNEFEVENFAKALNSLKVKPDVIYADAADVDEERFARELGERLNFEAEVVAKHKADDIFPVVSAASILAKVTRDRAVEKLKEEYGEIGSGYPSDPRTRAFLENYYREHGEFPPIVRKGWKTLKKIAEKVESEKTQDMINKST	soluble
MKIATYNVRVDTEYDQDWQWSFRKEAVCQLINFHDWSLCCIQEVRPNQVRDLKAYTTFTCLSAEREGDGQGEGLAILYNEQKVQAIDTGYFWLSETPQQPSIHPEAGCPRIALWGLFKETTQNTPFLVINVHLDHISAHARLAGMTVILEELHDKIAQYPTLLMGDFNAESGEEVHQLVQKKFQDSKNLATHYGPRGTFQNFTYTKPWAELEEIDYIYVKGWQVQQTASLTDSIDGRFPSDHFPLEAEVCIEER	not soluble
